Usually IC50 stands for the concentration at which inhibition is half-maximal. High values mean weaker potency in that assay, low ones greater potency in that assay.

Experiment [1] addresses affinity purified β2-GPI domain 1 specific antibodies from patients 6701 and 6626. Briefly: Surface plasmon resonance Kd determination on immobilized antibodies. It counts as binding, human. To be noted: read-out: Apparent equilibrium dissociation constant. Here is the method:
Reagents. CM5 chips, NHS and EDC and HBS-EP buffer were from BIAcore. Human pooled normal IgG (Zymed) was immobilized in a separate flow cell on the chip and used as a negative control. Affinity purified 2-GPI domain 1 specific antibodies from 2 patients (6701 and 6626) were immobilized in separate flow cells.
Surface Plasmon Resonance. All experiments were done on a BIAcore™ 2000 instrument at 25° C. with a flow rate of 10 μL/minute. Chip equilibration and binding studies were performed with degassed HBS-EP buffer, which consists of 0.01 M HEPES pH 7.4, 0.15 M NaCl, 3 mM EDTA and 0.005% (v/v) surfactant β20. […]
Titrations. […] Since the approach to binding equilibrium was incomplete during the measurement period, the equilibrium binding value (Req) was determined by fitting the association curves to the following equation using the manufacturer software (BiaEvaluation version 2.2, Uppsala, Sweden)): Rt=Req(1−e^−ks(t−t0))+R0 where Rt is the measured BIAcore response at time t, Req is the equilibrium plateau response, t is time, t0 is initial time, ks is an apparent association constant (ks=kaC+kdis where ka is the association constant, C is the analyte concentration and kdis is the dissociation constant), and R0 is a response offset, (Marquart-Levenberg algorithm). […]

In experiment [2] the test system is affinity purified β2GPI-dependent antiphospholipid antibody. As to the kind of experiment: Cardiolipin based ELISA, recombinant β2GPI proteins bound to cardiolipin coated wells. It counts as binding, human. To be noted: cardiolipin coated plates. Here is the method:
Microtiter plates (Immulon 1 #3350 from Dynex Technologies) were coated with 30 μl of a 50 μg/ml solution of cardiolipin in ethanol, dried overnight at 4° C., washed three times with PBS, pH 7.2, and blocked for one hour at room temperature with 75 μl of 5% (wt/v) fish gelatin, (Hipure Liquid Gelatin, Norland Products Inc. 695 Joyce Kilmer Ave., New Brunswick N.J., USA). The plates were washed three times with PBS, charged with 50 μl of full length recombinant β2GPI at 10 μg/ml in 5% fish gelatin and incubated at 37° C. for one hour. […] The optical density, at 550 nm, was determined by reading the plates in a microplate autoreader (Bio-Teck Instruments, model EL311).
Seven different recombinant β2GPI mutant proteins were examined to determine if they could support the direct binding of affinity purified β2GPI-dependent antiphospholipid antibody preparations in the presence of anionic phospholipid. All seven recombinant mutant β2GPI were assayed with rabbit anti-β2GPI and with an affinity purified β2GPI-dependent antiphospholipid antibody preparation. Each mutant recombinant β2GPI protein was tested, in a dose dependent fashion and GST-6his was included as a negative control. The recombinant mutant β2GPI proteins were bound to microtiter plates that had previously been coated with cardiolipin. […]

For experiment [3], the target named is affinity purified β2GPI-dependent antiphospholipid antibody from patient 6203. As to the kind of experiment: comp. inhibition ELISA. Background: ELISA stands for enzyme-linked immunosorbent assay.
The target in experiment [4] is affinity purified β2GPI-dependent antiphospholipid antibody from patient 6509. Briefly: comp. inhibition ELISA.
The target in experiment [5] is affinity purified β2GPI-dependent antiphospholipid antibody from patient 6632. As to the kind of experiment: comp. inhibition ELISA.
In experiment [6] the target is affinity purified β2GPI-dependent antiphospholipid antibody from patient 6644. As to the kind of experiment: comp. inhibition ELISA.
Experiment [7] deals with affinity purified β2GPI-dependent antiphospholipid antibody from patient 6652. Briefly: comp. inhibition ELISA.
Experiment [8] addresses affinity purified β2GPI-dependent antiphospholipid antibody from patient 7008. Briefly: comp. inhibition ELISA.
For experiment [9], the target named is affinity purified β2GPI-dependent antiphospholipid antibody from patient 7101. As to the kind of experiment: comp. inhibition ELISA.
For experiment [10], the target named is affinity purified β2GPI-dependent antiphospholipid antibody from patient 7104. As to the kind of experiment: comp. inhibition ELISA.
Experiment [11] has as its target affinity purified β2GPI-dependent antiphospholipid antibody preparation 6641 (from patient 6641). Briefly: comp. inhibition ELISA.
Experiment [12] deals with β2GPI-dependent antiphospholipid antibody from patient 6501. As to the kind of experiment: comp. inhibition ELISA.
For experiment [13], the target named is β2GPI-dependent antiphospholipid antibody from patient 6626. As to the kind of experiment: comp. inhibition ELISA.
The target in experiment [14] is β2GPI-dependent antiphospholipid antibody from patient 6701. As to the kind of experiment: comp. inhibition ELISA.
Experiment [15] deals with β2GPI-dependent antiphospholipid antibody from patient 7015. Briefly: comp. inhibition ELISA.

Like-named read-outs stand apart in the source and are kept apart here. Some results are limits rather than exact numbers.

B1: 1----: recombinant β2GPI protein with domain 1 only (SEQ ID NO:4 region), His6 tail (protein)
chain: GRTCPKPDDLPFSTVVPLKTFYEPGEEITYSCKPGYVSRGGMRKFICPLTGLWPINTLKCTPRVGHHHHHH
As for B1, the results for the Kd in experiment [1] (immobilized antibody from patient 6626) and in experiment [1] (immobilized antibody from patient 6701) were 0.333 ± 0.018 µM and 0.417 ± 0.036 µM, respectively.

B2: 12345: recombinant full length human β2GPI (domains 1-5) with C-terminal GlyHis6, baculovirus expressed (protein)
chain: GRTCPKPDDLPFSTVVPLKTFYEPGEEITYSCKPGYVSRGGMRKFICPLTGLWPINTLKCTPRVCPFAGILENGAVRYTTFEYPNTISFSCNTGFYLNGADSAKCTEEGKWSPELPVCAPIICPPPSIPTFATLRVYKPSAGNNSLYRDTAVFECLPQHAMFGNDTITCTTHGNWTKLPECREVKCPFPSRPDNGFVNYPAKPTLYYKDKATFGCHDGYSLDGPEEIECTKLGNWSAMPSCKASCKLPVKKATVVYQGERVKIQEKFKNGMLHGDKVSFFCKNKEKKCSYTEDAQCIDGTIEVPKCFKEHSSLAFWKTDASDVKPCGHHHHHH
Take B2: the “direct binding of patient antibody” value in [2] is reported as “readily detected”.

B3: recombinant β2GPI domain 5 with GlyHis6 (----5) (protein)
chain: GRASCKLPVKKATVVYQGERVKIQEKFKNGMLHGDKVSFFCKNKEKKCSYTEDAQCIDGTIEVPKCFKEHSSLAFWKTDASDVKPCGHHHHHH
Consider B3, for which the IC50 in experiment [3], in experiment [4], in experiment [5], in [6], in experiment [7] and in experiment [8] was above 47 µM in each case. Moreover, the IC50 in experiment [9], in [10], in experiment [11], in [12], in experiment [13] and in experiment [14] was above 47 µM throughout. Further, the IC50 in experiment [15] is above 47 µM. In addition, the Max inhibition in experiment [3] was 5%; in experiment [4] it was 10%; in experiment [5], 10%; in [6], 10%; in [7] it was 15%; in experiment [8] it was 20%. In addition, the Max inhibition came to 5% in experiment [9]; 0% in experiment [10]; 10% in [11]; 10% in [12]; 10% in experiment [13]; 10% in [14]. The Max inhibition in [15] was determined as 10%.

(Values after patent US6858210B1, “Therapeutic and diagnostic domain 1 β2GPI polypeptides and methods of using same” (La Jolla Pharmaceutical Co., priority 1998, dated 2005).)
